Assays:
[1] = target: BCMA-CAR (CAR with the CT103A scFv) on cells; test: flow cytometry, AF647-labelled antibody on BCMA-CAR-Jurkat cells; SECOND series, also printed as 12F1 (possibly 6G8), 2-fold dilution step 1 of 10 (highest); parameters: scale not given here
[2] = target: BCMA-CAR (CAR with the CT103A scFv) on cells; test: flow cytometry, AF647-labelled antibody on BCMA-CAR-Jurkat cells; first series, 2-fold dilution step 9 of 10; parameters: scale not given here
[3] = target: BCMA-CAR (CAR with the CT103A scFv) on cells; test: flow cytometry, AF647-labelled antibody on BCMA-CAR-Jurkat cells; SECOND series, also printed as 12F1 (possibly 6G8), step 9 of 10; parameters: scale not given here
[4] = target: BCMA-CAR (CAR with the CT103A scFv) on cells; test: flow cytometry, AF647-labelled antibody on BCMA-CAR-Jurkat cells; first series, 2-fold dilution step 4 of 10; parameters: scale not given here
[5] = target: BCMA-CAR (CAR with the CT103A scFv) on cells; test: flow cytometry, AF647-labelled antibody on BCMA-CAR-Jurkat cells; first series, 2-fold dilution step 7 of 10; parameters: scale not given here
[6] = target: BCMA-CAR (CAR with the CT103A scFv) on cells; test: flow cytometry, AF647-labelled antibody on BCMA-CAR-Jurkat cells; first series, 2-fold dilution step 1 of 10 (highest); negative control MFI 0.18; parameters: scale not given here
[7] = target: BCMA-CAR (CAR with the CT103A scFv) on cells; test: flow cytometry, AF647-labelled antibody on BCMA-CAR-Jurkat cells; first series, 2-fold dilution step 3 of 10; parameters: scale not given here
[8] = target: BCMA-CAR (CAR with the CT103A scFv) on cells; test: flow cytometry, AF647-labelled antibody on BCMA-CAR-Jurkat cells; SECOND series, also printed as 12F1 (possibly 6G8), step 10 of 10 (lowest); parameters: scale not given here
[9] = target: BCMA-CAR (CAR with the CT103A scFv) on cells; test: flow cytometry, AF647-labelled antibody on BCMA-CAR-Jurkat cells; SECOND series, also printed as 12F1 (possibly 6G8), step 4 of 10; parameters: scale not given here
[10] = target: BCMA-CAR (CAR with the CT103A scFv) on cells; test: flow cytometry, AF647-labelled antibody on BCMA-CAR-Jurkat cells; SECOND series, also printed as 12F1 (possibly 6G8), step 7 of 10; parameters: scale not given here
[11] = target: BCMA-CAR (CAR with the CT103A scFv) on cells; test: flow cytometry, AF647-labelled antibody on BCMA-CAR-Jurkat cells; first series, 2-fold dilution step 8 of 10; parameters: scale not given here
[12] = target: BCMA-CAR (CAR with the CT103A scFv) on cells; test: flow cytometry, AF647-labelled antibody on BCMA-CAR-Jurkat cells; SECOND series, also printed as 12F1 (possibly 6G8), step 3 of 10; parameters: scale not given here
[13] = target: BCMA-CAR (CAR with the CT103A scFv) on cells; test: flow cytometry, AF647-labelled antibody on BCMA-CAR-Jurkat cells; first series, 2-fold dilution step 2 of 10; parameters: scale not given here
[14] = target: BCMA-CAR (CAR with the CT103A scFv) on cells; test: flow cytometry, AF647-labelled antibody on BCMA-CAR-Jurkat cells; SECOND series, also printed as 12F1 (possibly 6G8), step 8 of 10; parameters: scale not given here
[15] = target: BCMA-CAR (CAR with the CT103A scFv) on cells; test: flow cytometry, AF647-labelled antibody on BCMA-CAR-Jurkat cells; first series, 2-fold dilution step 5 of 10; parameters: scale not given here
[16] = target: CT103A scFv; test: competition ELISA, antibody at 1000 ng/ml pre-incubated with biotin-CT103A scFv; competitor: coated BCMA
[17] = target: BCMA-CAR (CAR with the CT103A scFv) on cells; test: flow cytometry, AF647-labelled antibody on BCMA-CAR-Jurkat cells; first series, 2-fold dilution step 6 of 10; parameters: scale not given here
[18] = target: BCMA-CAR (CAR with the CT103A scFv) on cells; test: flow cytometry, AF647-labelled antibody on BCMA-CAR-Jurkat cells; SECOND series, also printed as 12F1 (possibly 6G8), step 6 of 10; parameters: scale not given here
[19] = target: CT103A scFv; test: competition ELISA, antibody at 500 ng/ml pre-incubated with biotin-CT103A scFv; competitor: coated BCMA
[20] = target: BCMA-CAR (CAR with the CT103A scFv) on cells; test: flow cytometry, AF647-labelled antibody on BCMA-CAR-Jurkat cells; first series, 2-fold dilution step 10 of 10 (lowest); parameters: scale not given here
[21] = target: BCMA-CAR (CAR with the CT103A scFv) on cells; test: flow cytometry, AF647-labelled antibody on BCMA-CAR-Jurkat cells; SECOND series, also printed as 12F1 (possibly 6G8), step 2 of 10; parameters: scale not given here
[22] = target: BCMA-CAR (CAR with the CT103A scFv) on cells; test: flow cytometry, AF647-labelled antibody on BCMA-CAR-Jurkat cells; SECOND series, also printed as 12F1 (possibly 6G8), step 5 of 10; parameters: scale not given here

Sequence of BCMA-CAR (CAR with the CT103A scFv) on cells (chain, as listed by the source): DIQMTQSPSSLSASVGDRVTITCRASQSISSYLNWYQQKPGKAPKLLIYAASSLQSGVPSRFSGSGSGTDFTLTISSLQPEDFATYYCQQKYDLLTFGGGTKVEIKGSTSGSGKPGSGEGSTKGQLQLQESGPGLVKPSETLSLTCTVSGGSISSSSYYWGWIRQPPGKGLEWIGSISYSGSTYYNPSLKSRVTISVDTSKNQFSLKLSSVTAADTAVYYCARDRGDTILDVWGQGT
Sequence of CT103A scFv (scFv, as listed by the source): as the sequence (chain, as listed by the source) above

MFI [1]: 4.66
MFI [2]: 1.53
MFI [3]: 0.25
MFI [4]: 14.3
MFI [5]: 4.37
MFI [6]: 15.3
MFI [7]: 15.3
MFI [8]: 0.22
MFI [9]: 1.28
MFI [10]: 0.37
MFI [11]: 2.83
MFI [12]: 1.98
MFI [13]: 15.3
MFI [14]: 0.31
MFI [15]: 12.4
信号抑制率 [16]: > 90%
MFI [17]: 7.73
MFI [18]: 0.53
信号抑制率 [19]: > 90%
MFI [20]: 0.94
MFI [21]: 3.16
MFI [22]: 0.81
B1: 12F1 (antibody, V domains shown)
VH: QSLEESGGRLVTPGTPLTLTCTVSGFSLNSNAMGWVRQAPGKGLEYIGFIAAYGDTHNATWAKGRFTISKTSTTVDLKITSPTTEDTATYFCASTYGGDGGWYFNIWGPGTLVTVSE
VL: AFELTQTPSSVEAAVGGTVIIKCQASQNIVRYLSWYQQKPGQPPKLLIYEASNLASGVPSRFSGSGSGTEFTLTISDLECADAATYYCQSYYDAESFNTFGGGTEVVVKG
